Patent US20020150558A1 (CENTRE NATIONAL DE LA RECHERCHE SCIENTIFIQUE CNRS, published 2002)

T1: Ad5Luc3 (adenovirus serotype 5 (Ad5), UniProt P11818 1-581)
T1 sequence: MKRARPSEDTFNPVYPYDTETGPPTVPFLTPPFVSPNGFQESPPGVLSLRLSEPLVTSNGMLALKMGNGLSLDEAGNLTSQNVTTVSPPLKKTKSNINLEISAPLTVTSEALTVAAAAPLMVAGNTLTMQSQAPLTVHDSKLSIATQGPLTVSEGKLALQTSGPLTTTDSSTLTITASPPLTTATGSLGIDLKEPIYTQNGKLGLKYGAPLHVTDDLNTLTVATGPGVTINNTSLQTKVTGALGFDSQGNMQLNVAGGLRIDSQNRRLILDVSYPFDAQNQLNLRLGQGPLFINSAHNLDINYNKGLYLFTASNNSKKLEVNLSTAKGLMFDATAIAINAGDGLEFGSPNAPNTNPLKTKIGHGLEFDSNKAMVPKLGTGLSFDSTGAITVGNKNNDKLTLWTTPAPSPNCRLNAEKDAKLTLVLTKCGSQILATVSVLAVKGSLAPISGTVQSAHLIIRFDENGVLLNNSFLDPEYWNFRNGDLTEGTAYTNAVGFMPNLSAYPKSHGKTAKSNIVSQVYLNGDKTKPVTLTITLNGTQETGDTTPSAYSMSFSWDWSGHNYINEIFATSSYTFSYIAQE

B1: synthetic peptide MH20 (peptide)
peptide: RAIVGFRVQWLRRYFVNGSR

Experiments:
[1] = target: class I HLA molecules (MHC-I) at the cell surface (human); assay: cell-based or functional assay
Ad5Luc3 = target: T1, Ad5Luc3; assay: cell-based or functional assay

| Molecule | luciferase activity 18 h post-infection, attachment at 0 C; Daudi HLA- cells against Daudi-HLA+ cells (orders of magnitude) [1] | fold decrease in luciferase activity (RLU) in HeLa cells; Ad5Luc3 preincubated with peptide, attachment at 0 C (Ad5Luc3) |
| --- | --- | --- |
| Ad5Luc3 (from UniProt P11818 1-581) | 3 to 4 | – |
| B1 | – | 100 fold |
